Source: article PMC3128119

Target: T1, SmeT (UniProt Q8KLP4 1-219)
T1 sequence: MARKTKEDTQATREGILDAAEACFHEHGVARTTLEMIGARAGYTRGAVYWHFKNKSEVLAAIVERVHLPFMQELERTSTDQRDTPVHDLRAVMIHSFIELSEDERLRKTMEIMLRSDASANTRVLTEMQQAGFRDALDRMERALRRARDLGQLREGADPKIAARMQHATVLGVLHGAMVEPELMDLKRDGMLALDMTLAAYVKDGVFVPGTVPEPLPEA
Test: EMSA; 0.2 uM SmeT, 2 nM DNA, no triclosan, 10 mM MgCl2; EMSA: 10 mM Tris-HCl pH 7.2, 50 mM KCl, 10 mM MgCl2, 1 mM EDTA, 50 ug/ml BSA, 1 mM DTT, 5% glycerol, 100 ug/ml poly(dI-dC), room temperature 20 min (+15 min with biocide); 6% gel at 4 C
Conditions: protein: recombinant; tags: none stated after intein-CBD self-cleavage (pTYB1); chain copies: 2; label: 5' 32P; blunt

B1: 30-bp smeT operator (dsDNA)
DNA 1: GTTTACAAACAAACAAGCATGTATGTATAT
DNA 2: ATATACATACATGCTTGTTTGTTTGTAAAC
- binding result: binds
